{
  "source": "patent US20050287149A1",
  "about": "(Bristol-Myers Squibb, published 2005)",
  "binders": {"B1": {"name": "human monoclonal antibody 2D5 (antibody, V domains shown)", "VH": "QVQLVESGGGVVQPGRSLRLSCAASGFTFSSYGMHWVRQAPGKGLEWVAVIWNDGSNKYYADSVKGRFTISRDNSKNTLYLQMNSLRAEDTAVYYCARENWGEYFDYWGQGTLVTVSS", "VL": "AIQLTQSPSSLSASVGDRVTITCRASQGISSALAWYQQKPGKAPKLLIYDASSLKSGVPSRFSGSGSGTDFTLTISSLQPEDFATYYCQQFNSYWTFGQGTKVEIK", "notes": "also called HuMab 2D5"}, "B2": {"name": "human monoclonal antibody 5D5 (antibody, V domains shown)", "VH": "QVQLVESGGGVVQPGRSLRLSCAASGFTFSSYGMHWVRQAPGKGLEWVAVIWYDGSNKYYADSVKGRFTISRDNSKNTLYLQMNSLRAEDTAVYYCAREGNRSHYIPFAYWGQGTLVTVSS", "VL": "DIQMTQSPSSLSASVGDRVTITCRASQGISSWLAWYQQKPEKAPKSLIYAASSLQSGVPSRFSGSGSGTDFTLTISSLQPEDFATYYCQQYNSYPRTFGGGTKVEIK", "notes": "also called HuMab 5D5; 5D5-2E10"}, "B3": {"name": "human monoclonal antibody 2H4 (antibody, V domains shown)", "VH": "EVHLVESGGGLVQPGGSLRLSCAASGFTFSSYWMSWVRQAPGKGLEWVANINQYGSEKYYVDSVKGRFTISRDNAKNSLYLQMNSLRAEDTAVYYCARDSPYYYGSGSYYRGYWYFDLWGRGTLVTVSS", "VL": "B2 VL with R96P, G100Q, K103R, V104L", "notes": "also called HuMab 2H4"}},
  "note": "Changes are numbered by the printed parent chain.",
  "data": [
    {"target": "T1, Bacillus anthracis protective antigen, cleaved 63 kD form (PA63) (Bacillus anthracis, UniProt P13423 197-764)", "T1 construct": "also called cleaved protective antigen (63 kD); active fragment of PA", "T1 sequence (P13423 197-764 limits assumed)": "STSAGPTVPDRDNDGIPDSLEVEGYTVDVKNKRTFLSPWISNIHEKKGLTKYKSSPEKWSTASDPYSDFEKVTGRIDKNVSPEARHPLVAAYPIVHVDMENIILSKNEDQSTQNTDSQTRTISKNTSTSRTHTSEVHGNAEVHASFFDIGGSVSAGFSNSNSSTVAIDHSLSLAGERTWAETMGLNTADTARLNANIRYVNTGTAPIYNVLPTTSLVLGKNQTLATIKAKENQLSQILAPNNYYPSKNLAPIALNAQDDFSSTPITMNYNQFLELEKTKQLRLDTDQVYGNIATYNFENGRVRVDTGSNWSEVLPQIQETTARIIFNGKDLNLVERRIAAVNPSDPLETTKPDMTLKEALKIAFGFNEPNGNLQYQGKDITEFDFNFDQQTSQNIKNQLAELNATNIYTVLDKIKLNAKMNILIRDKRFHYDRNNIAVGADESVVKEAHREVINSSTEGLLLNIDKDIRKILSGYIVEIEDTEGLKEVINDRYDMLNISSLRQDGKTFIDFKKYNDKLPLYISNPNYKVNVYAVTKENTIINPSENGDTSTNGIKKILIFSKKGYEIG", "assay": "ELISA, plate coated with PA63 (FIG. 11)", "values": [
      {"binder": "B1", "binding result": "binds"},
      {"binder": "B2", "binding result": "binds"},
      {"binder": "B3", "binding result": "binds"}
    ]},
    {"target": "T2, Bacillus anthracis protective antigen, full-length 83 kD form (PA83) (Bacillus anthracis, UniProt P13423 30-764)", "T2 construct": "mature; also called rPA-83; full length PA 83", "T2 sequence (P13423 30-764)": "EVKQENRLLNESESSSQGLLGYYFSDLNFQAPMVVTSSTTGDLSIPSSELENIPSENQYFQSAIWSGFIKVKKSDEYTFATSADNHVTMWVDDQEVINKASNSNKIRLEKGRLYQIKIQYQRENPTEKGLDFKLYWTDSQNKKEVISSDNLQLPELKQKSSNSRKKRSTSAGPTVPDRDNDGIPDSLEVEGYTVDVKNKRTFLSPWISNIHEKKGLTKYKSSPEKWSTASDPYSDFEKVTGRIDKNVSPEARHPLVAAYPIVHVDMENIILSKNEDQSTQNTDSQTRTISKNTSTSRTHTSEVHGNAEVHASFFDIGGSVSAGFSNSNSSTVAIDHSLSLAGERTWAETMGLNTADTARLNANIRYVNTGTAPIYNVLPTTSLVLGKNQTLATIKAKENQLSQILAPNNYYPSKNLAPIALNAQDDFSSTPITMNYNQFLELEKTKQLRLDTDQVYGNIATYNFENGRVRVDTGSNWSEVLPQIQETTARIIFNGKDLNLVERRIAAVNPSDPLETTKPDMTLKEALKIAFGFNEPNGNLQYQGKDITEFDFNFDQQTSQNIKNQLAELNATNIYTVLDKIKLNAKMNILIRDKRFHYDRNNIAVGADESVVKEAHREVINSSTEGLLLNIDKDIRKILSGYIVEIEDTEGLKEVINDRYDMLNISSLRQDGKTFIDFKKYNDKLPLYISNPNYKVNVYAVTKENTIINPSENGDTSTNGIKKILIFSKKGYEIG", "assay": "ELISA, plate coated with PA83 (FIG. 11)", "values": [
      {"binder": "B1", "binding result": "binds"},
      {"binder": "B2", "binding result": "binds"},
      {"binder": "B3", "binding result": "binds"}
    ]}
  ]
}
